Data published in patent US20210388087A1 (Chugai, published 2021).
Changes are numbered by the printed parent chain.

B1: CE115HA000 D101A (antibody)
heavy: QVQLVESGGGVVQPGRSLRLSCAASGFTFSNAWMHWVRQAPGKGLEWVAQIKAKSNNYATYYAESVKGRFTISRDDSKNSLYLQMNSLKTEDTAVYYCRYVHYGAYYGVAAWGQGTTVTVSSASTKGPSVFPLAPSSKSTSGGTAALGCLVKDYFPEPVTVSWNSGALTSGVHTFPAVLQSSGLYSLSSVVTVPSSSLGTQTYICNVNHKPSNTKVDKKVEPKSCDKTHTCPPCPAPEAAGGPSVFLFPPKPKDTLMISRTPEVTCVVVDVSHEDPEVKFNWYVDGVEVHNAKTKPREEQYASTYRVVSVLTVLHQDWLNGKEYKCKVSNKALPAPIEKTISKAKGQPREPQVYTLPPSRCELTKNQVSLSCAVKGFYPSDIAVEWESNGQPENNYKTTPPVLDSDGSFFLVSKLTVDKSRWQQGNVFSCSVMHEALHNHYTQKSLSLSPDYKDDDDK
Fc: EPKSSDKTHTCPPCPAPELLGGPSVFLFPPKPKDTLMISRTPEVTCVVVDVSHEDPEVKFNWYVDGVEVHNAKTKPREEQYNSTYRVVSVLTVLHQDWLNGKEYKCKVSNKALPAPIEKTISKAKGQPREPQVCTLPPSRDELTKNQVSLWCLVKGFYPSDIAVEWESNGQPENNYKTTPPVLDSDGSFFLYSKLTVDKSRWQQGNVFSCSVMHEALHNRYTQKSLSLSP
light: DIVMTQSPLSLPVTPGEPASISCRSSQSLVHSNRNTYLHWYQQKPGQAPRLLIYKVSNRFSGVPDRFSGSGSGTDFTLKISRVEAEDVGVYYCGQGTQVPYTFGQGTKLEIKRTVAAPSVFIFPPSDEQLKSGTASVVCLLNNFYPREAKVQWKVDNALQSGNSQESVTEQDSKDSTYSLSSTLTLSKADYEKHKVYACEVTHQGLSSPVTKSFNRGEC
notes: one-arm antibody
B2: CE115HA000 G98D (antibody, human IgG1, kappa, L234A L235A, N297A, name in Kabat numbering)
heavy: B1 heavy with G104D, A110D
chain: B1 Fc
light: B1 light
notes: one-arm antibody
B3: CE115HA000 D101V (antibody, human IgG1, kappa, L234A L235A, N297A, name in Kabat numbering)
heavy: B1 heavy with A110V
chain: B1 Fc
light: B1 light
notes: one-arm antibody
B4: CE115HA000 E61A (antibody, human IgG1, kappa, L234A L235A, N297A, name in Kabat numbering)
heavy: B1 heavy with E64A, A110D
chain: B1 Fc
light: B1 light
notes: one-arm antibody
B5: CE115HA000 D101K (antibody, human IgG1, kappa, L234A L235A, N297A, name in Kabat numbering)
heavy: B1 heavy with A110K
chain: B1 Fc
light: B1 light
notes: one-arm antibody
B6: CE115HA000 E61D (antibody, human IgG1, kappa, L234A L235A, N297A, name in Kabat numbering)
heavy: B1 heavy with E64D, A110D
chain: B1 Fc
light: B1 light
notes: one-arm antibody
B7: CE115HA000 G98K (antibody, human IgG1, kappa, L234A L235A, N297A, name in Kabat numbering)
heavy: B1 heavy with G104K, A110D
chain: B1 Fc
light: B1 light
notes: one-arm antibody
B8: CE115HA000 G98A (antibody, human IgG1, kappa, L234A L235A, N297A, name in Kabat numbering)
heavy: B1 heavy with G104A, A110D
chain: B1 Fc
light: B1 light
notes: one-arm antibody
B9: CE115HA000 D101M (antibody, human IgG1, kappa, L234A L235A, N297A, name in Kabat numbering)
heavy: B1 heavy with A110M
chain: B1 Fc
light: B1 light
notes: one-arm antibody
B10: CE115HA000 D101G (antibody, human IgG1, kappa, L234A L235A, N297A, name in Kabat numbering)
heavy: B1 heavy with A110G
chain: B1 Fc
light: B1 light
notes: one-arm antibody
B11: CE115HA000 D101H (antibody, human IgG1, kappa, L234A L235A, N297A, name in Kabat numbering)
heavy: B1 heavy with A110H
chain: B1 Fc
light: B1 light
notes: one-arm antibody
B12: CE115HA000 D101Y (antibody, human IgG1, kappa, L234A L235A, N297A, name in Kabat numbering)
heavy: B1 heavy with A110Y
chain: B1 Fc
light: B1 light
notes: one-arm antibody
B13: CE115HA000 D101Q (antibody, human IgG1, kappa, L234A L235A, N297A, name in Kabat numbering)
heavy: B1 heavy with A110Q
chain: B1 Fc
light: B1 light
notes: one-arm antibody
B14: CE115HA000 D101S (antibody, human IgG1, kappa, L234A L235A, N297A, name in Kabat numbering)
heavy: B1 heavy with A110S
chain: B1 Fc
light: B1 light
notes: one-arm antibody
B15: CE115HA000 E61P (antibody, human IgG1, kappa, L234A L235A, N297A, name in Kabat numbering)
heavy: B1 heavy with E64P, A110D
chain: B1 Fc
light: B1 light
notes: one-arm antibody
B16: CE115HA000 G98P (antibody, human IgG1, kappa, L234A L235A, N297A, name in Kabat numbering)
heavy: B1 heavy with G104P, A110D
chain: B1 Fc
light: B1 light
notes: one-arm antibody
B17: CE115HA000 D101F (antibody, human IgG1, kappa, L234A L235A, N297A, name in Kabat numbering)
heavy: B1 heavy with A110F
chain: B1 Fc
light: B1 light
notes: one-arm antibody
B18: CE115HA000 G98S (antibody, human IgG1, kappa, L234A L235A, N297A, name in Kabat numbering)
heavy: B1 heavy with G104S, A110D
chain: B1 Fc
light: B1 light
notes: one-arm antibody
B19: CE115HA000 G98T (antibody, human IgG1, kappa, L234A L235A, N297A, name in Kabat numbering)
heavy: B1 heavy with G104T, A110D
chain: B1 Fc
light: B1 light
notes: one-arm antibody
B20: CE115HA000 D101L (antibody, human IgG1, kappa, L234A L235A, N297A, name in Kabat numbering)
heavy: B1 heavy with A110L
chain: B1 Fc
light: B1 light
notes: one-arm antibody
B21: CE115HA000 G98H (antibody, human IgG1, kappa, L234A L235A, N297A, name in Kabat numbering)
heavy: B1 heavy with G104H, A110D
chain: B1 Fc
light: B1 light
notes: one-arm antibody
B22: CE115HA000 D101T (antibody, human IgG1, kappa, L234A L235A, N297A, name in Kabat numbering)
heavy: B1 heavy with A110T
chain: B1 Fc
light: B1 light
notes: one-arm antibody
B23: CE115HA000 D101P (antibody, human IgG1, kappa, L234A L235A, N297A, name in Kabat numbering)
heavy: B1 heavy with A110P
chain: B1 Fc
light: B1 light
notes: one-arm antibody
B24: CE115HA000 D101I (antibody, human IgG1, kappa, L234A L235A, N297A, name in Kabat numbering)
heavy: B1 heavy with A110I
chain: B1 Fc
light: B1 light
notes: one-arm antibody
B25: CE115HA000 G98Q (antibody, human IgG1, kappa, L234A L235A, N297A, name in Kabat numbering)
heavy: B1 heavy with G104Q, A110D
chain: B1 Fc
light: B1 light
notes: one-arm antibody
B26: CE115HA000 D101R (antibody, human IgG1, kappa, L234A L235A, N297A, name in Kabat numbering)
heavy: B1 heavy with A110R
chain: B1 Fc
light: B1 light
notes: one-arm antibody
B27: CE115HA000 G65D (antibody, human IgG1, kappa, L234A L235A, N297A, name in Kabat numbering)
heavy: B1 heavy with G68D, A110D
chain: B1 Fc
light: B1 light
notes: one-arm antibody
B28: CE115HA000 D101N (antibody, human IgG1, kappa, L234A L235A, N297A, name in Kabat numbering)
heavy: B1 heavy with A110N
chain: B1 Fc
light: B1 light
notes: one-arm antibody
B29: CE115HA000 F29V (antibody, human IgG1, kappa, L234A L235A, N297A, name in Kabat numbering)
heavy: B1 heavy with F29V, A110D
chain: B1 Fc
light: B1 light
notes: one-arm antibody
B30: CE115HA000 G65E (antibody, human IgG1, kappa, L234A L235A, N297A, name in Kabat numbering)
heavy: B1 heavy with G68E, A110D
chain: B1 Fc
light: B1 light
notes: one-arm antibody
B31: CE115HA000 G98Y (antibody, human IgG1, kappa, L234A L235A, N297A, name in Kabat numbering)
heavy: B1 heavy with G104Y, A110D
chain: B1 Fc
light: B1 light
notes: one-arm antibody
B32: CE115HA000 E61Q (antibody, human IgG1, kappa, L234A L235A, N297A, name in Kabat numbering)
heavy: B1 heavy with E64Q, A110D
chain: B1 Fc
light: B1 light
notes: one-arm antibody
B33: CE115HA000 G98R (antibody, human IgG1, kappa, L234A L235A, N297A, name in Kabat numbering)
heavy: B1 heavy with G104R, A110D
chain: B1 Fc
light: B1 light
notes: one-arm antibody

What follows are binders tested against T1, CD3 epsilon homodimer protein (UniProt P07766 23-126) (assay: SPR, CD3 epsilon homodimer on chip, one-arm antibody as analyte;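 further: surface plasmon resonance at 25 °C with CD3 epsilon homodimer amine-coupled to a CM4 sensor chip, antibody injected as analyte, HBS-EP+ as running buffer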).
T1 construct: also called CD3 (CD3 epsilon)
T1 sequence (P07766 23-126): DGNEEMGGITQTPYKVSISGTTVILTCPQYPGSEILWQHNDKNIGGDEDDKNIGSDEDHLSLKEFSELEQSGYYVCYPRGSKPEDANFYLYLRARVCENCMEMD
With B1 the “KD ratio (KD of CE115HA000/KD of altered form)” value (“KD ratio” for short) was 0.86. For B2, the “KD ratio” value was 2.36. With B3 the “KD ratio” value was 1.18. In the case of B4, the “KD ratio” value is reported as 0.94. In the case of B5, the “KD ratio” value is reported as 4.37. With B6 the “KD ratio” value was 0.9. With B7 the “KD ratio” value was 4.85. B8 was tested, and the “KD ratio” value was 0.98. With B9 the “KD ratio” value was 1.94. For B10, the “KD ratio” value was 3.16. B11 was tested, and the “KD ratio” value was 0.91. For B12, the “KD ratio” value was 0.97. For B13, the “KD ratio” value was 3.55. With B14 the “KD ratio” value was 0.91. With B15 the “KD ratio” value was 0.82. For B16, the “KD ratio” value was 0.88. For B17, the “KD ratio” value was 0.73. B18 was tested, and the “KD ratio” value was 0.98. B19 was tested, and the “KD ratio” value was 0.93. With B20 the “KD ratio” value was 0.71. With B21 the “KD ratio” value was 1.14. For B22, the “KD ratio” value was 0.62. With B23 the “KD ratio” value was 43.4. B24 was tested, and the “KD ratio” value was 1.73. B25 was tested, and the “KD ratio” value was 1.04. With B26 the “KD ratio” value was 5.56. B27 was tested, and the “KD ratio” value was 0.61. In the case of B28, the “KD ratio” value is reported as 2.28. In the case of B29, the “KD ratio” value is reported as 2.94. For B30, the “KD ratio” value was 0.61. With B31 the “KD ratio” value was 2.75. For B32, the “KD ratio” value was 0.65. B33 was tested, and the “KD ratio” value was 4.69.
